Assay results taken from IntAct's records for PubMed 17409324.

B1: Vang-like protein 1 (Homo sapiens), Q8TAA9 (parent)
chain: MDTESTYSGYSYYSSHSKKSHRQGERTRERHKSPRNKDGRGSEKSVTIQPPTGEPLLGNDSTRTEEVQDDNWGETTTAITGTSEHSISQEDIARISKDMEDSVGLDCKRYLGLTVASFLGLLVFLTPIAFILLPPILWRDELEPCGTICEGLFISMAFKLLILLIGTWALFFRKRRADMPRVFVFRALLLVLIFLFVVSYWLFYGVRILDSRDRNYQGIVQYAVSLVDALLFIHYLAIVLLELRQLQPMFTLQVVRSTDGESRFYSLGHLSIQRAALVVLENYYKDFTIYNPNLLTASKFRAAKHMAGLKVYNVDGPSNNATGQSRAMIAAAARRRDSSHNELYYEEAEHERRVKKRKARLVVAVEEAFIHIQRLQAEEQQKAPGEVMDPREAAQAIFPSMARALQKYLRITRQQNYHSMESILQHLAFCITNGMTPKAFLERYLSAGPTLQYDKDRWLSTQWRLVSDEAVTNGLRDGIVFVLKCLDFSLVVNVKKIPFIILSEEFIDPKSHKFVLRLQSETSV
partner: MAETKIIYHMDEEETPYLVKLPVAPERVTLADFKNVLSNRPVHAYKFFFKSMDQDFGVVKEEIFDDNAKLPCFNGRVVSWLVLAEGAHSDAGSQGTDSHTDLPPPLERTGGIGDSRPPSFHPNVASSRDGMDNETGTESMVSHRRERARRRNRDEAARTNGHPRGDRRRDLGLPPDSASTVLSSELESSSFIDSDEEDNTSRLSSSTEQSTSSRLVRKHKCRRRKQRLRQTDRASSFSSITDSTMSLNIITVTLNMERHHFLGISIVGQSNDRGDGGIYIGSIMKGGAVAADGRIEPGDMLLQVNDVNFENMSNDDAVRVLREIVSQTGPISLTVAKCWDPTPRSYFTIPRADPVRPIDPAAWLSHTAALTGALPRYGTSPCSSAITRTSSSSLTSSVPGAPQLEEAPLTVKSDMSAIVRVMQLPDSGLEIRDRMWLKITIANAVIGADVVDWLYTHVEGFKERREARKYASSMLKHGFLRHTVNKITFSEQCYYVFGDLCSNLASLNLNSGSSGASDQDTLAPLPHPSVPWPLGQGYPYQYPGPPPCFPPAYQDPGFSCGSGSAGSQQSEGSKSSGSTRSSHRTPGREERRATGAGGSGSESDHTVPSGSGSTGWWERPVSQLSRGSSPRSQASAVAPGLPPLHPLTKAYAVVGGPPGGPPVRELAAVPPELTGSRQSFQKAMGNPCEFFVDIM
B2: Vang-like protein 1 (Homo sapiens), Q8TAA9 (parent)
chain: B1 chain
partner: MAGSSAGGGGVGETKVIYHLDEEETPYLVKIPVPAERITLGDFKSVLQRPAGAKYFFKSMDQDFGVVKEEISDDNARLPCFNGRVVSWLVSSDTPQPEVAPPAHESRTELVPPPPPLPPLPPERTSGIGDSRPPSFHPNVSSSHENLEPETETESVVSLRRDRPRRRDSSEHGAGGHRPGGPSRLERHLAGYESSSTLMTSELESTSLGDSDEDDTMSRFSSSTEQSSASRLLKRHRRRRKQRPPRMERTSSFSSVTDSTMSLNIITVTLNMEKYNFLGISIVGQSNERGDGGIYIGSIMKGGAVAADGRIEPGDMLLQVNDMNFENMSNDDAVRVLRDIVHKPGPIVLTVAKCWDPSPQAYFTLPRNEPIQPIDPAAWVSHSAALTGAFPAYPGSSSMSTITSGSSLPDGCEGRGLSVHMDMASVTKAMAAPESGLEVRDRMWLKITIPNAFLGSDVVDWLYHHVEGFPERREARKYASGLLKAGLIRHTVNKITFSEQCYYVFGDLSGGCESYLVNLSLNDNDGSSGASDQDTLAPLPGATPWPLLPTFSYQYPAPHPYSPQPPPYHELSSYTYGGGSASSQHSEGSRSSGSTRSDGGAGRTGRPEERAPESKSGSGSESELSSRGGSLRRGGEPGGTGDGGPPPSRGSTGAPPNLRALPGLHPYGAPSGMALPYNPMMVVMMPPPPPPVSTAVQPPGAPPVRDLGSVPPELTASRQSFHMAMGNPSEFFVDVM
B3: Vang-like protein 1 (Homo sapiens), Q8TAA9 (parent)
chain: B1 chain
partner: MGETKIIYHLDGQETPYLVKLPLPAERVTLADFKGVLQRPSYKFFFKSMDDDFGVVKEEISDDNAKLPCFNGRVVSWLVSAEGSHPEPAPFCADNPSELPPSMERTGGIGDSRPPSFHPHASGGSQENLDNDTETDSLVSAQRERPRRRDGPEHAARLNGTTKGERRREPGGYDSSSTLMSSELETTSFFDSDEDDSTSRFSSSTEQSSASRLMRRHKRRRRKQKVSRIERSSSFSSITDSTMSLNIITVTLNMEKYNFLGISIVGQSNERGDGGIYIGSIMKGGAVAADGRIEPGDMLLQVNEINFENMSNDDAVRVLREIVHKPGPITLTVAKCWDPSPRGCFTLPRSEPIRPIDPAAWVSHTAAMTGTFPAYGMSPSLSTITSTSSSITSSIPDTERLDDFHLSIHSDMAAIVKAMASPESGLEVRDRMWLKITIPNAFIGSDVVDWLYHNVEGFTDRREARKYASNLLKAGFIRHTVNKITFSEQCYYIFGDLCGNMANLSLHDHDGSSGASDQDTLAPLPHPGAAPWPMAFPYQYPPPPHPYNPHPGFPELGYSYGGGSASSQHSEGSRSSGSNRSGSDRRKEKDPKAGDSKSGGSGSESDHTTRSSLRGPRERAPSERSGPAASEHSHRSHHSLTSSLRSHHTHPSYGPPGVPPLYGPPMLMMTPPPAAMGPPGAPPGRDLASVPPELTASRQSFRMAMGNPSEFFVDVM

Variants of: B1
Conditions: with dvl1_mouse Dvl1, P51141
In the case of V239I, the “effect of a mutation on the interaction” value is reported as “disrupting interaction strength”.
In the case of D259E, the “effect of a mutation on the interaction” value is reported as “disrupting interaction strength”.
R274Q was tested, and the “effect of a mutation on the interaction” value was “with no effect”.
For M328T, the “effect of a mutation on the interaction” value was “with no effect”.
With S467N the “effect of a mutation on the interaction” value was “disrupting interaction strength”.

Variants of: B2
Conditions: with dvl2_mouse Dvl2, Q60838
S467N was tested, and the “effect of a mutation on the interaction” value was “decreasing interaction strength”.
In the case of D259E, the “effect of a mutation on the interaction” value is reported as “disrupting interaction strength”.
With M328T the “effect of a mutation on the interaction” value was “with no effect”.
For R274Q, the “effect of a mutation on the interaction” value was “with no effect”.
V239I was tested, and the “effect of a mutation on the interaction” value was “disrupting interaction strength”.

Variants of: B3
Conditions: with dvl3_mouse Dvl3, Q61062
For V239I, the “effect of a mutation on the interaction” value was “disrupting interaction strength”.
For D259E, the “effect of a mutation on the interaction” value was “disrupting interaction strength”.
R274Q was tested, and the “effect of a mutation on the interaction” value was “with no effect”.
For M328T, the “effect of a mutation on the interaction” value was “with no effect”.
For S467N, the “effect of a mutation on the interaction” value was “with no effect”.
